Reference: the Immune Epitope Database (IEDB)

What was measured:
Conditions in all cases: source organism: Influenza A virus (A/Puerto Rico/8/1934(H1N1))
[1] = target: HLA-A*02:01; experiment: IEDB peptide-MHC binding, purified MHC/competitive/radioactivity; ≥ and ≤ were set here for values at or beyond the usual limits of such assays
[2] = target: HLA-B*07:02; experiment: as above
[3] = target: HLA-A*11:01; experiment: as above
[4] = target: HLA-A*03:01; experiment: as above
[5] = target: HLA-A*31:01; experiment: as above
[6] = target: HLA-A*68:01; experiment: IEDB peptide-MHC binding, purified MHC/competitive/radioactivity; filed as Kd, often an IC50 or EC50 that approximates it; ≥ and ≤ were set here for values at or beyond the usual limits of such assays
[7] = target: HLA-A*68:01; experiment: IEDB peptide-MHC binding, purified MHC/competitive/radioactivity; ≥ and ≤ were set here for values at or beyond the usual limits of such assays
[8] = target: HLA-A*33:01; experiment: IEDB peptide-MHC binding, purified MHC/competitive/radioactivity; filed as Kd, often an IC50 or EC50 that approximates it; ≥ and ≤ were set here for values at or beyond the usual limits of such assays
[9] = target: HLA-A*33:01; experiment: IEDB peptide-MHC binding, purified MHC/competitive/radioactivity; ≥ and ≤ were set here for values at or beyond the usual limits of such assays

| Sequence | IC50 [1] | IC50 [2] | also measured |
| --- | --- | --- | --- |
| ALKMTMASV | 225 nM |  |  |
| APPKQSRMQF |  | 24 nM |  |
| APSPYNSRF |  | 19.2 nM |  |
| AVGKEFNKLEK |  |  | IC50 [3]: 130 nM |
| CIYRRFKYFLK |  |  | IC50 [3]: 231 nM |
| CLLQSLQQI | 159 nM |  |  |
| CPKYVRSAKL |  | 344 nM |  |
| FLWHVRKRV | 204 nM |  |  |
| FPNEVGARIL |  | 365 nM |  |
| FPSSSYRRPV |  | 20.9 nM |  |
| GIAPLQLGK |  |  | IC50 [4]: 18 nM; IC50 [3]: 30 nM; IC50 [5]: 281 nM; Kd [6]: 1180 nM |
| GIHHPSNSK |  |  | IC50 [3]: 429 nM |
| GMFNMLSTV | 28 nM |  |  |
| GMGWLTIGI | 133 nM |  |  |
| GPALSINEL |  | 119 nM |  |
| GPDNGAVAVL |  | 498 nM |  |
| GPPCSQRSKF |  | 270 nM |  |
| GPVHFRNQV |  | 71.4 nM |  |
| GTHPSSSAGLK |  |  | IC50 [3]: 94 nM |
| ILWILDRLFFK |  |  | IC50 [3]: 21 nM |

| Sequence | IC50 [1] | IC50 [2] | also measured |
| --- | --- | --- | --- |
| IPKQKVAGPL |  | 42.4 nM |  |
| ITNKVNSVIEK |  |  | IC50 [3]: 90 nM |
| KLESMGIYQI | 434 nM |  |  |
| KMNIQFTAV | 150 nM |  |  |
| KTRPILSPLTK |  |  | IC50 [3]: 120 nM |
| LILRGSVAHK |  |  | IC50 [3]: 188 nM |
| LLLEVEQEI | 213 nM |  |  |
| LLTEVETPI | 24 nM |  |  |
| LMDALKLSI | 40 nM |  |  |
| LPACVYGPAV |  | 220 nM |  |
| LPRRSGAAGA |  | 76.3 nM |  |
| LPSLPGHTA |  | 41 nM |  |
| LPVRSWSYIV |  | 207 nM |  |
| MLSTVLGVSI | 252 nM |  |  |
| NIQFTAVGK |  |  | IC50 [3]: 182 nM |
| NLYNIRNLHI | 61 nM |  |  |
| NPALRMKWM |  | 59.5 nM |  |
| NPRMFLAMI |  | 10.1 nM |  |
| RMNYYWTLLK |  |  | IC50 [3]: 2.6 nM |
| RMQFSSFTV | 28 nM |  |  |

| Sequence | IC50 [1] | IC50 [2] | also measured |
| --- | --- | --- | --- |
| RPCFWVELI |  | 67.1 nM |  |
| RPWVSFDQNL |  | 397 nM |  |
| RTLDFHDSNVK |  |  | IC50 [4]: 141 nM; IC50 [3]: 50 nM; IC50 [5]: 1500 nM; IC50 [7]: 2290 nM; Kd [8]: 6300 nM |
| RVLSFIKGTK |  |  | IC50 [4]: 13.8 nM; IC50 [3]: 72 nM; IC50 [5]: 333 nM; IC50 [9]: 1320 nM; IC50 [7]: 471 nM |
| SIIPSGPLK |  |  | IC50 [4]: 14 nM; IC50 [5]: 4290 nM; IC50 [7]: 108 nM |
| SLLTEVETYV | 38 nM |  |  |
| SLPFQNIHPV | 96 nM |  |  |
| SMIEAESSV | 160 nM |  |  |
| SPGMMMGMF |  | 137 nM |  |
| SPKGVEESSI |  | 215 nM |  |
| SPYNSRFESV |  | 41.4 nM |  |
| STDTVDTVLEK |  |  | IC50 [3]: 90 nM |
| SVRNGTYDYPK |  |  | IC50 [3]: 43 nM |
| TMVMELVRMIK |  |  | IC50 [4]: 124 nM; IC50 [3]: 194 nM; IC50 [5]: 1290 nM |
| TPLGAINSSL |  | 34.9 nM |  |
| VLLVSLGAI | 290 nM |  |  |
| VPASRYLTDM |  | 13.6 nM |  |
| WILDRLFFK |  |  | IC50 [3]: 7.6 nM |
| WMMAMKYPI | 72 nM |  |  |
| YPKLKNSYV |  | 176 nM |  |
